Results taken from publication PMC9021610.

Experiments:
[1] = biological target: nsp12 (RdRp catalytic subunit, Sf9);nsp7;nsp8 (SARS-CoV-2;SARS-CoV-2;SARS-CoV-2, UniProt P0DTD1;P0DTD1;P0DTD1 4393-5324;3860-3942;3943-4140, ||); experiment: EMSA; conditions: protein: recombinant;recombinant;recombinant; tags: 6xHis (Results: C-terminal; Methods: His tag after 5' ATG);6xHis (Results: C-terminal; legend: His6-nsp7);6xHis (Results: C-terminal; legend: His6-nsp8); copies: 1;1;2; label: 5'-biotin on strand 1 (S1); 5' overhang 10 nt (U10) on strand 2
[2] = biological target: nsp12 (RdRp catalytic subunit, Sf9) (SARS-CoV-2, UniProt P0DTD1 4393-5324); experiment: EMSA; nsp12 alone; conditions: protein: recombinant; tags: 6xHis (Results: C-terminal; Methods: His tag after 5' ATG); label: 5'-biotin on strand 1 (S1); 5' overhang 10 nt (U10) on strand 2

B1: S1*/S2 RNA primer/template (dsRNA)
RNA 1: GCUAUGUGAGAUUAAGAAUU
RNA 2: UUUUUUUUUUAAUUCUUAAUCUCACAUAGC
[1]
  binding result: binds
[2]
  binding result: binds
